The values that follow come from US20170259217A1 (GOVERNORS OF THE UNIVERSITY OF ALBERTA, published 2017).

Non-standard residues stand in square brackets, D forms with d. amino hexenoic acid = amino hexenoic acid, a vinyl (alkene)-bearing residue; Gly(octyl) = CCCCCCCC[C@H](N)C(=O)O; NMeL = CN[C@@H](CC(C)C)C(=O)O

This test deals with T1, OmpG, bacterial porin (Escherichia coli K12) (Escherichia coli K12, UniProt P76045 22-301, limits assumed).
T1 sequence (looked up): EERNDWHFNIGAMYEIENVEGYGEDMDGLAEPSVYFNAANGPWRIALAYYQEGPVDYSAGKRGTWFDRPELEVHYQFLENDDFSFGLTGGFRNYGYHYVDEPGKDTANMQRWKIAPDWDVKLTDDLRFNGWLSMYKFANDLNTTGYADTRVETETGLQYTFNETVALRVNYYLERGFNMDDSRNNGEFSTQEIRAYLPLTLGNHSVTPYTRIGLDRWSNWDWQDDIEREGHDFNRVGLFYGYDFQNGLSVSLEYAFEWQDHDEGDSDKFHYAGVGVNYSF
Briefly: circular dichroism of peptide-stabilized protein. For orientation: Circular dichroism is the unequal absorption of left and right circularly polarised light.

B1: vinyl (alkene mid-) functionalized β-sheet peptide, structure (8): acetyl-(octyl)Gly-Ser-Leu-Ser-amino hexenoic acid-Leu-Asp-(octyl)Gly-Asp-Gly-Leu-NH2 (peptide)
peptide: Ac-[Gly(octyl)]SLS[amino hexenoic acid][NMeL]D[Gly(octyl)]DGL-NH2
notes: Synthetic 11-residue peptide; also called Vinyl-BP1
For B1, the binding result is given as “binds”.
